For series [1], the target named is T1, MjFsrI (F420-dependent sulphite reductase, Fsr) (Methanocaldococcus jannaschii, UniProt Q58280).
T1 construct: native, purified from sulphite-grown Mj cells; untagged
T1 sequence (Q58280 1-620): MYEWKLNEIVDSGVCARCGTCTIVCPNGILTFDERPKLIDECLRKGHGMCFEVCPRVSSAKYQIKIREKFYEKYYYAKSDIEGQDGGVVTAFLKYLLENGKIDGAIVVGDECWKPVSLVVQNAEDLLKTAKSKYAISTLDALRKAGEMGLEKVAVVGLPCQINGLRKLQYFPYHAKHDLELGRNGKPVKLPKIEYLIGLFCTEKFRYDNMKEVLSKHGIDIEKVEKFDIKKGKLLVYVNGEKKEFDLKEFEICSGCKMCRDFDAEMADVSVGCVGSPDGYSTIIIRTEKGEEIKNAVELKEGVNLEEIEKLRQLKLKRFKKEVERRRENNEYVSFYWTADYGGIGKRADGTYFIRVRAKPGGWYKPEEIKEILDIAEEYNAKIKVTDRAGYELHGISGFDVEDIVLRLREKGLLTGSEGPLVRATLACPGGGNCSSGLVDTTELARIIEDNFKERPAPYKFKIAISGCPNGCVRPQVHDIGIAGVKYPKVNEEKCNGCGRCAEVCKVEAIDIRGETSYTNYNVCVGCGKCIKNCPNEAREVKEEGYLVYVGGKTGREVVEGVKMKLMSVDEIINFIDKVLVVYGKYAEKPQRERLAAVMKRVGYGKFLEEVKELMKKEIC
Kind of series: non-degradative extraction from purified protein, reversed-phase HPLC. It is filed as binding. As to conditions: native co-purified flavin, 25 mM potassium phosphate pH 7.

Substrate in series [2]: O=NO
Description: purified protein. Type of series: biochemical, Methanocaldococcus jannaschii. As to conditions: 40 µM F420H2, 5-150 µM nitrite, 100 mM potassium phosphate pH 7.

Substrate in series [3]: NO
Description: purified protein. It is filed as biochemical, Methanocaldococcus jannaschii. As to conditions: 40 µM F420H2, 25-600 µM hydroxylamine, 100 mM potassium phosphate pH 7.

Data on two molecules can be found in PMC10202398, “Nitrite reductase activity in F420-dependent sulphite reductase (Fsr) from Methanocaldococcus jannaschii” (Access Microbiology, 2023).

Regarding `Cc1cc2nc3c(=O)[nH]c(=O)nc-3n(C[C@H](O)[C@H](O)[C@H](O)COP(=O)(O)OP(=O)(O)OC[C@H]3O[C@@H](n4cnc5c(N)ncnc54)[C@H](O)[C@@H]3O)c2cc1C` [FAD], the “non-degradative extraction from purified protein, reversed-phase HPLC” value in series [1] is “Reversed-phase HPLC identified the flavin extracted from MjFsrI as FAD”.

B1: MjFsrI (F420-dependent sulphite reductase, Fsr) (Methanocaldococcus jannaschii DSM 2661) (protein)
chain: T1 sequence (Q58280 1-620)
notes: native, purified from sulphite-grown Mj cells; untagged
The Km is the substrate concentration at which the rate is half of its maximum. B1: the Km in “purified protein [2]” worked out at 8.9 ± 0.9 µM; in the series “purified protein [3]” it was 112.4 ± 14.4 µM.
